Results published in PMC4962319.

Molecular target: TIA-1-GLuc1 (UniProt P31483)
Test: split reporter (BiFC, NanoBiT); split Gaussia luciferase protein-fragment complementation assay (PCA); GLuc1 and GLuc2 fusions coexpressed in live HEK293T cells, luminescence read 48 h after transfection with native coelenterazine

Sequence of UniProt P31483 (P31483 whole entry, the tested form may be a part): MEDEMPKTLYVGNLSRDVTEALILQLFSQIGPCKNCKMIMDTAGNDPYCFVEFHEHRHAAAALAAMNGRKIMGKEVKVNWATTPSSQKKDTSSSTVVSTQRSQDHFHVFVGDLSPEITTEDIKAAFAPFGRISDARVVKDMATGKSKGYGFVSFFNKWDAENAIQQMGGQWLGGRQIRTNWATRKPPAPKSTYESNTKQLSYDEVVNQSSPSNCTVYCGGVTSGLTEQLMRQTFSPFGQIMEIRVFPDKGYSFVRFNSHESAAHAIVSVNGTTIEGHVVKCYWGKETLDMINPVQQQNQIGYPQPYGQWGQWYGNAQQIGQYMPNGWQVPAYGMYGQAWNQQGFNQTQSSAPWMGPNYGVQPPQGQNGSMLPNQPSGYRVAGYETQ

fold of PCA interaction signal over wildtype Tau: > 6 fold
Substance: TauE14-GLuc2 (from UniProt P10636-6 1-383) (natural protein)
